Patent US10568344B2, “Methods of improving animal performance” (Novozymes A/S, priority 2015, dated 2020)
Marks after values point to notes of the source that are not given here.

Assay: In vivo piglet trial, growth performance
Design: species or system weaned piglets
Procedure: The trial was performed from Oct. 23 to Dec. 4, 2014 at the Research Center for Animal Nutrition (DSM Nutritional Products France, F-68305 Village-Neuf) according to the official French guidelines for experiments with live animals. One hundred and four castrated male crossbred (Large-White (female)×Redon (male)) weaned piglets having 28 days of age supplied by the commercial farm “[…] du Rhin” located in Balgau (France), were used in a 42-day experiment. The initial bodyweight of the piglets was 7.88±0.675 kg. They were sorted by body weight into 32 groups of 3 or 4 piglets and randomly allotted to each dietary treatment. Each group of animals was placed in one flat-deck cages and allocated to one of the different treatments. Each treatment was replicated with 8 cages using a total of 26 animals (6 cages of 3 animals/treatment and 2 cages of 4 animals/treatment) per treatment. […] Animals were housed in an environmentally controlled room. Room temperature was initially 27° C. and was lowered weekly by about 2° C. until 21-22° C. and relative humidity percentage was 50%. The experimental diets (Pre-Starter and Starter) were fed ad libitum in two feeding phases from day 0 to 14 (phase 1, Pre-starter) and day 14 to 42 (phase 2, Starter). The ingredient composition and the calculated nutrient levels of the experimental diets for phases 1 and 2 are presented in table 11. Both diets were formulated to meet the animals' requirements according NRC (2012) and were fed in pelleted form. Pelleting conditions were at 70° C. for 30 seconds. […] No additional enzymes (e.g. phytase) were added to the feed. […] Appropriate amount of the liquid preparations of lysozyme was diluted in water and sprayed onto the respective pelleted feed to get the final concentrations in the feed corresponding to the different treatments. For procedural balance of all treatments the same volume of water were also sprayed onto the pellets of the control diets. Body weight of the individual animals and feed consumption per pen were recorded on days 14 and 42 of the study. […] The experimental unit was the piglet, except for ADFI and FCR which were measured by cage, and in both cases, treatment was used as class variable. One-factorial ANOVA and Student-Newman-Keuls test was used to assess differences among means in treatment groups.

B1: SEQ ID NO: 1: mature amino acid sequence of a wild type GH25 lysozyme from Acremonium alcalophilum with N-terminal SPIRR (protein)
chain: SPIRRRIPGFDISGWQPTTDFARAYANGDRFVYIKATEGTTFKSSAFSRQYTGATQNGFIRGAYHFAQPAASSGAAQARYFASNGGGWSKDGITLPGALDIEYNPNGATCYGLSQSAMVNWIEDFVTTYHGITSRWPVIYTTTDWWTQCTGNSNRFANRCPLWIARYASSVGTLPNGWGFYTFWQYNDKYPQGGDSNWFNGDASRLRALANGD
modifications: Wild type sequence with N-terminal SPIRR
ADFI, % relative NC (day 0-14, 50 ppm): 90.0%
ADFI, Mean (day 0-14, 50 ppm): 324 g/day
ADWG, % relative NC (day 0-14, 50 ppm): 96.2%
ADWG, Mean (day 0-14, 50 ppm): 279 g/day
FCR, % relative NC (day 0-14, 50 ppm): 94.4%
FCR, Mean (day 0-14, 50 ppm): 1.170^a
ADFI, % relative NC (day 0-42, 50 ppm): 93.1%
ADFI, Mean (day 0-42, 50 ppm): 683^a g/d
ADWG, % relative NC (day 0-42, 50 ppm): 102.4%
ADWG, Mean (day 0-42, 50 ppm): 511 g/day
EPEF, % relative NC (day 0-42, 50 ppm): 113.0%
EPEF, Mean (day 0-42, 50 ppm): 383
FCR, % relative NC (day 0-42, 50 ppm): 90.4%
FCR, Mean (day 0-42, 50 ppm): 1.341^a
ADFI, % relative NC (day 14-42, 50 ppm): 92.7%
ADFI, Mean (day 14-42, 50 ppm): 862^a g/d
ADWG, % relative NC (day 14-42, 50 ppm): 104.0%
ADWG, Mean (day 14-42, 50 ppm): 627 g/day
FCR, % relative NC (day 14-42, 50 ppm): 89.3%
FCR, Mean (day 14-42, 50 ppm): 1.379^a
Improvement on FCR compared to the negative control (overall period (day 0 to day 42), 50 mg/kg): 9.6%
Improvement to FCR compared to NC (starter period, day 15 to day 42, 50 mg/kg): 11.3%
Improvement of ADWG compared to the negative control diet (starter period, 50 mg/kg): 4.0%
EPEF improvement compared to the negative control (whole period, 50 mg/kg): 13.0%
Improvement of ADWG compared to the negative control diet (whole period, 50 mg/kg): 2.4%
